Assay results from patent US20140341938A1.

Target: SIINFEKL:K^b complex (SIINFEKL complexed to H-2K^b) on LK^b cells (murine) (UniProt P01901)
Test: cell-based or functional assay

Chain of UniProt P01901 (P01901 22-369, one chain of several): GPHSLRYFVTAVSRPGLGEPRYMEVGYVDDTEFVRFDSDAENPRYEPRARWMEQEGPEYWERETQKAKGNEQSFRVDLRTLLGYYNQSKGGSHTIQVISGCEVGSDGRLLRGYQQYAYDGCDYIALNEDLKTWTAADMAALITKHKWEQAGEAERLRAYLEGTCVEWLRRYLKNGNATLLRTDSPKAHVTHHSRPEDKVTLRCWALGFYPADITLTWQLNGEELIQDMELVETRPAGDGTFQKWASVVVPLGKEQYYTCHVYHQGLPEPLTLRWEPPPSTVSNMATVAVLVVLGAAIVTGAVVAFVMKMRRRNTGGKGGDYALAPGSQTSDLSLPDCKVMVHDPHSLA

β-galactosidase measured with a luminescent substrate after overnight co-incubation of SIINFEKL-pulsed LK^b cells with B3Z; limit of detection given as the peptide pulse concentration: 5 ng/mL
Sequence: T cell receptor of the SIINFEKL:Kb-specific T hybridoma B3Z (TCR)
